Laboratory results from publication PMC6005513.

Legend:
[1] = target: WMHBV myr-preS1-Al633-peptide; assay: Al633 fluorescence of labelled myr-preS1-peptide bound to transfected HEK293 cells; settings: 10 nM peptide, 20 min, 37°C, read off a plot
[2] = target: HBV myr-preS1-Al633-peptide (UniProt P03138); assay: as above; settings: 10 nM peptide, 20 min, 37°C, read off a plot

Callithrix jacchus (common marmoset) Ntcp, wild type (from UniProt F7HA36) G158R
response ([1]; parent: est. 20000): 11000 rfu

Callithrix jacchus (common marmoset) Ntcp, wild type (from UniProt F7HA36) G158S
response ([1]; parent: est. 20000): 14000 rfu

Chlorocebus aethiops (grivet) Ntcp, wild type (from UniProt A0A0U3VGV8) R158G
response ([1]; parent: est. 11000): 20000 rfu

Macaca fascicularis (crab-eating macaque) Ntcp, wild type R158G
response ([2]; parent: est. 11000): 25000 rfu
response ([1]; parent: est. 11000): 18000 rfu

Macaca mulatta (rhesus macaque) Ntcp, wild type (from UniProt A0A0U4DKK4) R158G
response ([1]; parent: est. 11000): 20000 rfu

Saguinus oedipus (cotton-top tamarin) Ntcp, wild type (from UniProt A0A0U4EKU3) S158G
response ([1]; parent: est. 11000): 15000 rfu

Saimiri sciureus (common squirrel monkey) Ntcp, wild type G158R
response ([2]; parent: est. 18000): 10000 rfu
response ([1]; parent: est. 18000): 11000 rfu

Saimiri sciureus (common squirrel monkey) Ntcp, wild type G158S
response ([2]; parent: est. 18000): 11000 rfu
response ([1]; parent: est. 18000): 10000 rfu

Semnopithecus sp. (langur) Ntcp, wild type R158G
response ([2]; parent: est. 11000): 28000 rfu
response ([1]; parent: est. 10000): 21000 rfu

human Na+/taurocholate co-transporting polypeptide (NTCP), wild type (from UniProt Q14973) G158D
response ([1]; parent: est. 24000): 12000 rfu

human Na+/taurocholate co-transporting polypeptide (NTCP), wild type (from UniProt Q14973) G158N
response ([1]; parent: est. 24000): 12000 rfu

human Na+/taurocholate co-transporting polypeptide (NTCP), wild type (from UniProt Q14973) G158R
response ([1]; parent: est. 24000): 11000 rfu

human Na+/taurocholate co-transporting polypeptide (NTCP), wild type (from UniProt Q14973) G158S
response ([1]; parent: est. 24000): 19000 rfu

human Na+/taurocholate co-transporting polypeptide (NTCP), wild type (from UniProt Q14973) G158V
response ([1]; parent: est. 24000): 10000 rfu
